Measured values: US20210332141A1, “INSULIN-LIKE GROWTH FACTOR-1 RECEPTOR (IGF-1R) BINDING PROTEINS AND METHODS OF USE” (AMGEN INC., priority 2017, published 2021)
pIC50, pKd, pKi: −log10 of the molar value.

What was measured:
HER-2 = HER-2 (Homo sapiens, UniProt P04626); details: cellular; read-out: IC50 against Others: HER-2; cited from earlier work
[1] = biological target: murine IGF-1R(ECD)-C3-mFc (murine) (UniProt Q60751); assay: Biacore, kinetic method, murine IGF-1R(ECD)-C3-mFc
[2] = biological target: murine IGF-1R(ECD)-C3-mFc (murine) (UniProt Q60751); assay: IGEN ligand blocking, competitor human Ru labeled IGF-1 on murine IGF-1R(ECD)-C3-mFc
[3] = biological target: murine IGF-1R(ECD)-C3-mFc (murine) (UniProt Q60751); assay: IGEN ligand blocking, competitor human Ru labeled IGF-2 on murine IGF-1R(ECD)-C3-mFc
[4] = biological target: murine IGF-1R(ECD)-C3-mFc (murine) (UniProt Q60751); assay: IGEN ligand blocking, maximal inhibition of human Ru labeled IGF-1 binding to murine IGF-1R(ECD)-C3-mFc

Chain of murine IGF-1R(ECD)-C3-mFc (murine) (Q60751 31-936): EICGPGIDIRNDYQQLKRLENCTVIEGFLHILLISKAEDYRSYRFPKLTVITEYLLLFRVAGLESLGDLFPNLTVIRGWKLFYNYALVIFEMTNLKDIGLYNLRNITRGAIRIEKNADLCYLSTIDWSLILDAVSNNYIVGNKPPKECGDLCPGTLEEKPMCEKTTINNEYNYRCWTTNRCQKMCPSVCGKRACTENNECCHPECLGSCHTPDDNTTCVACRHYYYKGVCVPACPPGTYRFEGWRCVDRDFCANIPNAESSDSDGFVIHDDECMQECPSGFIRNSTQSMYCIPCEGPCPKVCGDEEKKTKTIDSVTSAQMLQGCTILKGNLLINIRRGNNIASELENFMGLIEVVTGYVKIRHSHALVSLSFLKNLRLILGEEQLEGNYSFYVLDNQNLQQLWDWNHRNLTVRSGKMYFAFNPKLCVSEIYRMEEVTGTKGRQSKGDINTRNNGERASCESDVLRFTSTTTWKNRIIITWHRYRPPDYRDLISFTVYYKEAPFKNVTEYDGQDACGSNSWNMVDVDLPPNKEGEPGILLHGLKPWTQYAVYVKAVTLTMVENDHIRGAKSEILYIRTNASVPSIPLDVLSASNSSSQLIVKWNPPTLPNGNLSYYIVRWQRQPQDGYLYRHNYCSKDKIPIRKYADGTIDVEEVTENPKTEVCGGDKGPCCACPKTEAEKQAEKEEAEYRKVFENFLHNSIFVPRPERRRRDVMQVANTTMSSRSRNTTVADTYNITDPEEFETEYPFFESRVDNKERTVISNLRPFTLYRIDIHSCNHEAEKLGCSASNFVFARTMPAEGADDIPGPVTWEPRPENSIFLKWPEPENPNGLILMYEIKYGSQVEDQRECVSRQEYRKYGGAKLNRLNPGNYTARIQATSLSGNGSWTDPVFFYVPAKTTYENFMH
Chain of HER-2 (P04626 23-1255, species assumed): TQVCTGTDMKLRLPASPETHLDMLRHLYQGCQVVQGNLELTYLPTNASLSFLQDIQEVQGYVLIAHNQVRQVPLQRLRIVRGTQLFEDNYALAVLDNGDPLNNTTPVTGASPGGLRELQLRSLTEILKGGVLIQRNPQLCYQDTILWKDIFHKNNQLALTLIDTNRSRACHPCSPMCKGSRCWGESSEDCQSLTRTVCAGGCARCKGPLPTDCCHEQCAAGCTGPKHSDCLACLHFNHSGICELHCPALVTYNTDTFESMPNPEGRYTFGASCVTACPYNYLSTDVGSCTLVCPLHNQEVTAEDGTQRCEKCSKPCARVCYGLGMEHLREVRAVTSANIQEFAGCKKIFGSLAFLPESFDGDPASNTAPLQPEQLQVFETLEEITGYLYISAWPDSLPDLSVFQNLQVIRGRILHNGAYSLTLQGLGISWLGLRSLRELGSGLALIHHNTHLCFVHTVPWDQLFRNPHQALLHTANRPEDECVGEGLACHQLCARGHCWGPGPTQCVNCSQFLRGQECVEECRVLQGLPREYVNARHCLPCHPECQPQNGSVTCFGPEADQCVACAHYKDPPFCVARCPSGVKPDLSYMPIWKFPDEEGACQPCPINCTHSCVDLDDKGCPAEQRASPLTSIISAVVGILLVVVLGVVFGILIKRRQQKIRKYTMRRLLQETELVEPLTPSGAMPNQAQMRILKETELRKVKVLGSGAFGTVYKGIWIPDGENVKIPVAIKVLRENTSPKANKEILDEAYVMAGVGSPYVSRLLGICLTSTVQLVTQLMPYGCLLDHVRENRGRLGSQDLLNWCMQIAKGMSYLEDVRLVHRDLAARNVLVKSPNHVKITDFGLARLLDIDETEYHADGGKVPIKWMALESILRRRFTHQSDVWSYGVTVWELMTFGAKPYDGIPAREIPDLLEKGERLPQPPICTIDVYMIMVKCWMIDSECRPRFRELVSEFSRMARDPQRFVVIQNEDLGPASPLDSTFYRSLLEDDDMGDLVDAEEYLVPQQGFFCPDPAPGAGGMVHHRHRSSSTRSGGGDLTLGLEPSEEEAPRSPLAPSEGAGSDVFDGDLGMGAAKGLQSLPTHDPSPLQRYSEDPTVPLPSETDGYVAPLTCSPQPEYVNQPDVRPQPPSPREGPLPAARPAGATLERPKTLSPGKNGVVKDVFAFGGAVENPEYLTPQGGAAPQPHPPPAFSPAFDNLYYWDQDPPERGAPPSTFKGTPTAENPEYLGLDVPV

Molecule	pIC50 (HER-2)	pKd [1]	pKi [2]	pKi [3]	IGF-1 Max (%) [4] [%]
C[C@H](Cc1ccc(O)c(O)c1)[C@@H](C)Cc1ccc(O)c(O)c1 [INSM-18, nondihydroguaiaretic acid]	4.82				
αIR3 (antibody)		9.48	< 6.00	< 6.00	31
